Assay results from patent publication US11497796B2, “Agents directed against a cis RGMa/neogenin interaction or lipid rafts and use of the same in methods of treatment” (UNIVERSITY HEALTH NETWORK, priority 2013, dated 2022).
No end group written: not given here.

Key:
4Ig-domain of Neogenin = target: T1, 4Ig-domain of Neogenin (Gallus gallus, UniProt Q90610); assay: ELISA / AP binding assay of RGMa peptides to Neogenin domains; conditions: AP-tagged fragments 1.0 μg/mL on coated His-tagged 4Ig
T1 construct: made in house
T1 sequence (Q90610 1-383): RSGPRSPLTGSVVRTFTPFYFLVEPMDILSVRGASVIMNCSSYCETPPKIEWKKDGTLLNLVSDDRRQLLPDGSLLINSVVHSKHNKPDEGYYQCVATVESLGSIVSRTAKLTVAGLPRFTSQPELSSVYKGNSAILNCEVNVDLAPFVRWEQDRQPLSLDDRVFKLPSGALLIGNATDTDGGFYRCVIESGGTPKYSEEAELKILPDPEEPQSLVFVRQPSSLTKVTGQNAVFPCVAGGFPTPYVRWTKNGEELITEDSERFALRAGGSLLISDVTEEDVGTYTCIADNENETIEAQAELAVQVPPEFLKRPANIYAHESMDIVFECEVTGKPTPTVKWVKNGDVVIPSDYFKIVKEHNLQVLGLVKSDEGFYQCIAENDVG
From the text: Specifically, the 4Ig-domain and 6FNIII-domain of Neogenin were each fused to alkaline phosphatase (AP). The 4Ig-domain and 6FNIII-domain of Neogenin were found in the extracellular portion of Neogenin. Accession No. AAC59662 (SEQ ID NO:1) was the amino acid sequence of Neogenin. The 4Ig-domain was amino acids 1 to 383 of Accession No. AAC59662 (SEQ ID NO:1). The 6FNIII-domain was amino acids 429 to 1036 of Accession No. AAC59662 (SEQ ID NO:1).
The binding of these fusions to various RGMa peptides were analyzed in an ELISA assay (FIG. 2A).
To determine if distinct N-terminal regions of RGMa bound the 4Ig- and 6FNIII-domains of Neogenin, peptides were generated that spanned the N-terminal region of RGMa. The amino acid sequence of RGMa was Accession No. NP_989868.1 (SEQ ID NO:6). These peptides were a peptide spanning amino acids 28-73 of RGMa (also referred to herein as “N-Raft”) and a peptide spanning amino acids 77-113 of RGMa (also referred to herein as “N-inh”). […] In a complementary experiment, in which the N-Raft and N-inh peptides of RGMa were fused with AP instead of the 4Ig- and 6FNIII-domains of Neogenin, N-Raft bound to the 4Ig-domain and not the 6FNIII-domain while N-inh bound to the 6FNIII-domain and not the 4Ig-domain (FIG. 9). Additionally, N-inh and N-Raft coated beads pulled down 6FNIII-domain and 4Ig-domain, respectively, which was consistent with the ELISA results described above (FIG. 2B).
The assay was conducted in a 96-well microtiter plate (Corning Incorporated). The wells were coated with 100 μl (10 μg/mL) of Poly-L-Lysine at 4° C. overnight. Wells were then washed three times with 100 μl of PB ST (+0.02% Tween).
50 μl (2.5 μg/mL) of His-tagged: Full-length Neogenin; the 4Ig-domain of Neogenin; and 6FNIII-domain of Neogenin were coated onto each well for 1 hour at 37° C. Following three washes of 100 μl PBST, each well was then blocked with 300 μl of 3% BSA in PBST for 1 hour at 37° C.
50 μl (1.0 μg/mL) AP-tagged: N-RGMa (28-73); N-RGMa (28-54); N-RGMa (40-62); N-RGMa (54-73); N-RGMa (54-62) in 1% BSA+PBST was then added to each well and incubated at 37° C. for 1 hour. Each well was washed thoroughly three times with 100 μl PBST followed by subsequent equilibration of each well with Alkaline Phosphatase (AP) developing buffer (100 mM NaHCO3, 1 mM MgCl2). The reaction was developed using AP developing buffer supplemented with, p-nitrophenyl phosphate (pNPP) (Sigma-Aldrich) and allowed to develop until color development. The reaction was stopped with the addition of 50 μl (0.1M) NaOH. The absorbance of each reaction was measured using a microplate autoreader (BIO-TEK Instruments Inc.) at 405 nanometers (nm) wavelength.

[1] = system: retinal ganglion cells (RGCs); assay: Retinal organotypic cultures (whole mounts), propidium iodide cell death; type: cell-based; conditions: perturbing lipid rafts
Experimental: (A) HEK293 cells that stably express RGMa (FIG. 11) were transfected with empty plasmid (Ctrl) or Neogenin (Neo). Neogenin induced cell death (arrows) when compared to control. (B) Quantification of cell death in Neogenin-transfected cells that were incubated in BSA (Neo+Ctrl), 4Ig (1 μg/ml), N-Raft (1 μg/ml), Noggin (100 nM), or MβCD (10 mM). […] Data were average±SEM (n=3 independent experiments), *p<0.0001. (C) Representative images and (D) Quantification of cell death in chick E5 tecta electroporated with GFP- and a Neogenin-expression plasmid and then injected with N-RGMa50-99 (Ctrl; 1 μg/ml), 4Ig (1 μg/ml), or N-Raft (1 μg/ml) and subjected to TUNEL assay. […] Data were an average±SEM from 3 different tecta/conditions (*p<0.001). Bar, 100 μm. (E) Representative images and (F) Quantification of retinal whole mounts incubated for 4 days with control peptide (1 μg/ml), 4Ig (1 μg/ml), N-Raft (1 μg/ml), or MβCD (10 mM) and dead cells were stained with Propidium Iodide (PI). Images from 9 whole mounts per condition from 3 independent experiments were taken at the same intensities and the fluorescence measured using ImageJ. […] Bar, 500 μm. (G) Fluorescence micrographs of flat-mounted retinas depicting Fluorogold-labeled retinal ganglion cells (RGCs) in injured retinas at 14 days following axotomy. Control retinas (Ctrl) had few surviving RGCs. 4Ig, N-raft or MβCD increased cell survival. Bar, 200 μm. (H) Representations of the retinal areas selected in our analyses. […] Data were average±SEM (n=6 eyes), *p<0.01.
For this study, retinal organotypic cultures were used, in which axotomy of retinal ganglion cells (RGCs) deprived the cells of tropic factors and induced apoptosis. Cell death was detected using propidium iodide (PI) and all images were taken at the same intensity with the RGC-layer in focus. Cell death was gauged by measuring the relative PI intensity of whole mounts.

[2] = system: temporal retinal explants (axonal outgrowth); assay: Retinal explants outgrowth assay; type: cell-based, chick
Experimental: Poly-L-Lysine (SIGMA; 10 μg/ml) coated glass coverslips were treated with Laminin (Invitrogen; 10 μg/ml) and RGMa proteins (5 μg/ml) and incubated for 3 hours at room temperature. Temporal retinal explants were cultured on protein-coated surfaces for 18 hours. To disrupt the lipid rafts, explants were pretreated with 10 mM methyl-β-cyclodextrin (MβCD) for 12 minutes or 2 U/ml cholesterol oxidase (CO) for 1 hour at 37° C. Explants were then fixed with 4% paraformaldehyde (PFA) and stained with Alexa488-phalloidin. Fiber length was quantified using Image Pro 5.0. For immunolocalization, explants were treated with Cholera Toxin B-FITC (C1655; Sigma; 10 mg/mL) and patched, fixed and stained with Neogenin antibody. Retinal ganglion cells (RGCs) were electroporated with RGMa-His and cultured for 18 hours. The cells were fixed and stained with Neogenin and His-tag antibodies.
Retinal explants outgrowth assay. Poly-L-Lysine (PLL; SIGMA; 10 μg/ml) coated glass coverslips were treated with Laminin (10 μg/ml; Invitrogen) and RGMa proteins (5 μg) and incubated for 3 hrs at room temperature. PLL treated coverslips were coated with myelin overnight (6 μg/cm2), followed by coating with Laminin. Temporal retinal explants were cultured on either myelin or protein-coated surfaces in DMEM F-12 media (2% chick serum, 10% FBS) for 18 h. To disrupt rafts, explants were pre-treated with 10 mM MβCD for 12 min or 2 U/ml CO for 1 h at 37° C., washed, and cultured on protein coated coverslips. Explants were then fixed with 4% PFA and stained with Alexa488-fluor-phalloidin (1:50; Molecular Probes). Fiber length was quantified using Image Pro 5.0.
Statistical analysis of retinal outgrowth assays was performed using Student's two-tail t-test using Excel (Microsoft). Results were expressed as the mean±SEM (n=at least 3 independent experiments; 2 duplicates per independent experiment, >10 explants per duplicate).

[3] = system: Neogenin association with lipid rafts; assay: Lipid raft fractionation of injected chick brain/tecta; type: in vivo; conditions: injected into chick brain/optic tectum one day before fractionation
Experimental: Injected chick E8 tecta (4Ig, 2 mg/mL; N-raft, 1 mg/mL; methyl-β-cyclodextrin (10 mM)) or transfected cells (Neogenin and RGMa) were collected 24 hours later, lysed and placed at the bottom of a sucrose density gradient (0.9-0.8-0.75-0.7-0.6-0.5-0.4-0.2 M) and centrifuged at 38,000 rpm for 16 hours in SW 60 rotor (Beckman Instruments Inc.).
Proteins (4Ig, 2 mg/ml; N-Raft, 1 mg/mL; RGMaΔ, 5 mg/ml; methyl-β-cyclodextrin (10 mM)) were injected in chick E8 optic tectum and tecta were collected 24 hrs later. HEK cells were transfected with Neogenin and different RGMa constructs and collected 48 hrs later. For treatment with RGMaΔ, Neogenin transfected cells were treated with RGMaΔ (2 mg/ml) and BMP-2 (100 nM) and further incubated for 1 hr at 37° C. Tecta (3 tecta for each set of experiment) and/or cells were solubilized in chilled buffer (25 mM Tris-HCl, pH 7.4, 150 mM NaCl, 5 mM EDTA and protease inhibitor cocktail) and passed through G25 and G30 needles, respectively, and centrifuged at 800 g for 10 min at 4° C. Cold Triton X-100 was added to the post nuclear supernatant to a final concentration of 1% and incubated on ice for 1 hour. 2× volume of 2M sucrose was added and sample placed at the bottom of a sucrose density gradient (0.9-0.8-0.75-0.7-0.6-0.5-0.4-0.2 M) and centrifuged at 38,000 rpm for 16 hours in SW 60 rotor (Beckman Instruments Inc.). 400 μl fractions were collected from top (top numbered 1 and next eight fractions numbered consequently) and stored at −80° C.
As such, it was examined if overexpressing recombinant 4Ig and N-Raft competed with the endogenous 4Ig and N-Raft domains to displace Neogenin from the lipid raft fractions to the non-lipid raft fractions. Specifically, N-Raft, 4Ig-domain, or a control peptide, which was amino acid residues 50-99 of RGMa (also referred to herein as “N-RGMa^50-99”), was injected into the optic tectum at E8. The tecta were collected a day later for fractionation-analyses.

N-RGMa (40-62aa): amino acids 40-62 of RGMa (SEQ ID NO:4), AP-tagged (WAATSGSHHLGAEETPEFCTALR; also: AP-tagged)
binding to the 4Ig-domain of Neogenin (4Ig-domain of Neogenin): bound specifically

N-RGMa (54-73aa): amino acids 54 to 73 of RGMa (SEQ ID NO:3), AP-tagged (TPEFCTALRAYAHCTRRTAR; cysteine pairing not given here; also: AP-tagged)
binding to the 4Ig-domain of Neogenin (4Ig-domain of Neogenin): bound specifically

cholesterol oxidase [CO]
enhancement of cell survival vs. control [1]: about 50% | axonal outgrowth on RGMa proteins after lipid raft disruption ([2]; 10 mM MβCD or 2 U/ml of CO): restored to control values

B1: Noggin: BMP-chelator, Accession No. AAA83259 (SEQ ID NO:5) (protein, listed as Homo sapiens)
chain: MERCPSLGVTLYALVVVLGLRATPAGGQHYLHIRPAPSDNLPLVDLIEHPDPIFDPKEKDLNETLLRSLLGGHYDPGFMATSPPEDRPGGGGGAAGGAEDLAELDQLLRQRPSGAMPSEIKGLEFSEGLAQGKKQRLSKKLRRKLQMWLWSQTFCPVLYAWNDLGSRFWPRYVKVGSCFSKRSCSVPEGMVCKPSKSVHLTVLRWRCQRRGGQRCGWIPIQYPIISECKCSC
modifications: Noggin - Accession No. AAA83259
Neogenin localization in membrane fractions [3]: not present in the lipid rafts | outgrowth in retinal explants (E8) exposed to N-RGMa, C-RGMa or RGMaΔ ([2]; in presence of Noggin): restored outgrowth | axonal outgrowth, agent alone ([2]; no RGMa protein): unaffected

B2: C-RGMa: C-terminal RGMa isoform of the CNS (protein)
chain: PHLRTFTDTFQTCKVQGAWPLIDNNYLNVQVTNTPVLPGSSATATSKLTIIFKSFQECVEQKVYQAEMDELPAAFADGSKNGGDKHGANSLKITEKVSGQHIEIQAKYIGTTIVVRQVGRYLTFAVRMPEEVVNAVEDRDSQGLYLCLRGCPLNQQIDFQTFRLAQAAEGRARRKGPSLPAPPEAFTYESATAKCREKLPVEDLYFQSCVFDLLTTGDVNFMLAAYYAFEDVKMLHSNKDKLHLYERTRALAPGN
effect on axonal outgrowth when provided as growth substrate (in trans) ([2]; protein as substrate): blocked axon growth

B3: N-RGMa (SEQ ID NO:10): N-RGMa from mouse (protein)
chain: MQPPRERLVVTGRAGWMGMGRGAGRSALGLWPTLAFLLCSFPAAISPCKILKCNSEFWSATSSGSHAPASDDVPEFCAALRTYALCTRRTARTCRGDLAYHSAVHGIEDLMSQHNCSKDGPTSQPRVRTLPPAGDSQERSDSPEICHYEKSFHKHSAAPNYT
modifications: Mouse N-RGMa
notes: N-RGMa from mouse
binding to the 4Ig-domain of Neogenin (4Ig-domain of Neogenin): demonstrated binding

B4: N-RGMc (SEQ ID NO:9): N-RGMc from mouse (protein)
chain: MGQSPSPRSPHGSPPTLSTLTLLLLLCGQAHSQCKILRCNAEYVSSTLSLRGGGSPDTPRGGGRGGLASGGLCRALRSYALCTRRTARTCRGDLAFHSAVHGIEDLMIQHNCSRQGPTAPPPARGPALPGAGPAPLTPDPCDYEARFSRLHGRAPGFLHCASFGD
modifications: Mouse N-RGMc
notes: N-RGMc from mouse
binding to the 4Ig-domain of Neogenin (4Ig-domain of Neogenin): demonstrated binding
